# Results from publication PMC3320877 (2012).
# Experiments:
# [1] = molecular target: T1, recombinant His-tagged insect-cell expressed CCR5, detergent-solubilised (UniProt P51681 1-352); assay: SPR; two binding site model, KD2 (second site)
# [2] = molecular target: T1, recombinant His-tagged insect-cell …; assay: SPR; two binding site model, KD1
# [3] = molecular target: T1, recombinant His-tagged insect-cell …; assay: SPR; 1:1 binding model
# T1 sequence (P51681 whole entry): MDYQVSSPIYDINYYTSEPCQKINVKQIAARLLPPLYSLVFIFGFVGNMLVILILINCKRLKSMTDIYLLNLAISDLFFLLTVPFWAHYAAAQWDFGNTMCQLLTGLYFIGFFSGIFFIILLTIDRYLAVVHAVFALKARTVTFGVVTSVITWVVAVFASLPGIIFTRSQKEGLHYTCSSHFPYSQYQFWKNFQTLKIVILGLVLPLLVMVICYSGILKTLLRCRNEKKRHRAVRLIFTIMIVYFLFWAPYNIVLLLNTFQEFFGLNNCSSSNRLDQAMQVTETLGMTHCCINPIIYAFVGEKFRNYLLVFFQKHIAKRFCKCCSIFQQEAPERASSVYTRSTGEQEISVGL
binder,measurement,setting,value
visfatin (recombinant) (natural protein) MNPAAEAEFNILLATDSYKVTHYKQYPPNTSKVYSYFECREKKTENSKLRKVKYEETVFYGLQYILNKYLKGKVVTKEKIQEAKDVYKEHFQDDVFNEKGWNYILEKYDGHLPIEIKAVPEGFVIPRGNVLFTVENTDPECYWLTNWIETILVQSWYPITVATNSREQKKILAKYLLETSGNLDGLEYKLHDFGYRGVSSQETAGIGASAHLVNFKGTDTVAGLALIKKYYGTKDPVPGYSVPAAEHSTITAWGKDHEKDAFEHIVTQFSSVPVSVVSDSYDIYNACEKIWGEDLRHLIVSRSTQAPLIIRPDSGNPLDTVLKVLEILGKKFPVTENSKGYKLLPPYLRVIQGDGVDINTLQEIVEGMKQKMWSIENIAFGSGGGLLQKLTRDLLNCSFKCSYVVTNGLGINVFKDPVADPNKRSKKGRLSLHRTPAGNFVTLEEGKGDLEEYGQDLLHTVFKNGKVTKSYSFDEIRKNAQLNIELEAAHH,Kd,[1],600 nM
same,Kd,[2],2 nM
same,Kd,[3],5000 nM
